# Source: patent US20180305451A1
# Positions count from the first letter of the chain named.
# B1: αhHIDE1_AbD25754_hIgG1_Ser_mAb (antibody, V domains shown)
# VH: QVQLVQSGAEVKKPGASVKVSCKASGYTFSGYGMHWVRQAPGQGLEWMGIISPSNGNTNYAQKFQGRVTMTRDTSISTAYMELSRLRSEDTAVYYCAREVYYGLDVWGQGTLVTVSS
# VL: DIQMTQSPSSLSASVGDRVTITCRASQSISSWLNWYQQKPGKAPQLLIYGASSLQSGVPSRFSGSGSGTDFTLTISSLQPEDFATYYCQQYISIPITFGQGTKVEIK
# B2: αhHIDE1_AbD25755_hIgG1_Ser_mAb (antibody, V domains shown)
# VH: QVQLVQSGAEVKKPGSSVKVSCKASGGTFSSYAISWVRQAPGQGLEWMGGIVPKFGTAYYAQKFQGRVTITADESTSTAYMELSSLRSEDTAVYYCARENLVYSAIAIWGQGTLVTVSS
# VL: B1 VL with S28D, S31N, Q45K, Y91V, I92T, I94T, I96F
# B3: αhHIDE1_AbD25760_hIgG1_Ser_mAb (antibody, V domains shown)
# VH: QVQLVQSGAEVKKPGSSVKVSCKASGGTFSDYAINWVRQAPGQGLEWMGGIIPNFGTANYAQKFQGRVTITADESTSTAYMELSSLRSEDTAVYYCARGMRSLGGLSYYFDLWGQGTLVTVSS
# VL: B1 VL with S30N, W32Y, Q45K, G50A, S93H, I94Y
# Biological target: cyno HIDE1 (cyno)
# Sequence (chain, as listed by the source limits assumed, form in doubt): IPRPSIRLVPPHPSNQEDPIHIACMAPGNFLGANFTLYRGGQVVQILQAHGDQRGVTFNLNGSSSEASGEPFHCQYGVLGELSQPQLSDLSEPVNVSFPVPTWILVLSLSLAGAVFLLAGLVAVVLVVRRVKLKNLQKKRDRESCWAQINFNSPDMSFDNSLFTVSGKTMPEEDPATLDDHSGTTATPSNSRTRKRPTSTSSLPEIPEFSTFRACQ
# Assay: FACS, Geo mean ratio of HEK293 cells over-expressing cyno HIDE1 to HEK293 empty vector, antibody 10 ug/ml
row,"rMFI OX/EV, 10ug/ml, cHIDE1 (CR)",Binder
1,353,B1
2,328,B2
3,132,B3
